The supplement of paper PMC10567573

B1: TMEM106C (parent)
chain: SEQLVNFTGKAEMGGPFSYVYFFC

Variants of: B1
Test: protein stability index of a GFP-peptide fusion (GPS, HEK-293T) (PSI 1-6); higher = more stable
Settings: c terminus: a fixed tail appended
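Further: lentivirally expressed fusions sorted by FACS into six bins by GFP to DsRed ratio, PSI derived from sequencing read proportions per bin multiplied by bin number.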

Variant	protein stability index
SEQLVNFTGKAEMTGPFSYVYFFC [G14T]	3.09
SEQLVNFTGKAEMIGPFSYVYFFC [G14I]	3.83
SEQLVNFTGKAEMSGPFSYVYFFC [G14S]	3.33
SEQLVNFTGKAEMYGPFSYVYFFC [G14Y]	3.75
SEQLVNFTGKAEMNGPFSYVYFFC [G14N]	2.23
SEQLVNFTGKAEMPGPFSYVYFFC [G14P]	3.48
SEQLVNFTGKAEMKGPFSYVYFFC [G14K]	2.59
SEQLVNFTGKAEMHGPFSYVYFFC [G14H]	2.88
SEQLVNFTGKAEMFGPFSYVYFFC [G14F]	3.25
SEQLVNFTGKAEMEGPFSYVYFFC [G14E]	2.86
SEQLVNFTGKAEMLGPFSYVYFFC [G14L]	3
SEQLVNFTGKAEMCGPFSYVYFFC [G14C]	3.15
SEQLVNFTGKAEMAGPFSYVYFFC [G14A]	3.63
SEQLVNFTGKAEMDGPFSYVYFFC [G14D]	3.46
SEQLVNFTGKAEMQGPFSYVYFFC [G14Q]	2.52
SEQLVNFTGKAEMWGPFSYVYFFC [G14W]	3.4
SEQLVNFTGKAEMVGPFSYVYFFC [G14V]	3.73
SEQLVNFTGKAEMRGPFSYVYFFC [G14R]	2.42
SEQLVNFTGKAEMMGPFSYVYFFC [G14M]	2.79
SEQLVNFKGKAEMGGPFSYVYFFC [T8K]	2.4
SEQLVNFHGKAEMGGPFSYVYFFC [T8H]	3.31
SEQLVNFMGKAEMGGPFSYVYFFC [T8M]	2.02
SEQLVNFSGKAEMGGPFSYVYFFC [T8S]	2.29
SEQLVNFQGKAEMGGPFSYVYFFC [T8Q]	3.6

Variant	protein stability index
SEQLVNFWGKAEMGGPFSYVYFFC [T8W]	2.44
SEQLVNFLGKAEMGGPFSYVYFFC [T8L]	4.14
SEQLVNFAGKAEMGGPFSYVYFFC [T8A]	3.06
SEQLVNFIGKAEMGGPFSYVYFFC [T8I]	3.12
SEQLVNFCGKAEMGGPFSYVYFFC [T8C]	3.08
SEQLVNFPGKAEMGGPFSYVYFFC [T8P]	2.54
SEQLVNFFGKAEMGGPFSYVYFFC [T8F]	1.62
SEQLVNFGGKAEMGGPFSYVYFFC [T8G]	2.76
SEQLVNFRGKAEMGGPFSYVYFFC [T8R]	2.65
SEQLVNFEGKAEMGGPFSYVYFFC [T8E]	2.29
SEQLVNFYGKAEMGGPFSYVYFFC [T8Y]	3.78
SEQLVNFVGKAEMGGPFSYVYFFC [T8V]	2.92
SEQLVNFNGKAEMGGPFSYVYFFC [T8N]	2.63
SEQLVNFTGKAAMGGPFSYVYFFC [E12A]	1.37
SEQLVNFTGKARMGGPFSYVYFFC [E12R]	3.52
SEQLVNFTGKAPMGGPFSYVYFFC [E12P]	3.12
SEQLVNFTGKAFMGGPFSYVYFFC [E12F]	2.67
SEQLVNFTGKALMGGPFSYVYFFC [E12L]	2.07
SEQLVNFTGKAKMGGPFSYVYFFC [E12K]	4.11
SEQLVNFTGKANMGGPFSYVYFFC [E12N]	2.69
SEQLVNFTGKAMMGGPFSYVYFFC [E12M]	3.74
SEQLVNFTGKAHMGGPFSYVYFFC [E12H]	3.66
SEQLVNFTGKAYMGGPFSYVYFFC [E12Y]	3.17
SEQLVNFTGKAVMGGPFSYVYFFC [E12V]	2.79

Variant	protein stability index
SEQLVNFTGKACMGGPFSYVYFFC [E12C]	2.67
SEQLVNFTGKASMGGPFSYVYFFC [E12S]	2.79
SEQLVNFTGKATMGGPFSYVYFFC [E12T]	2.51
SEQLVNFTGKAWMGGPFSYVYFFC [E12W]	3.46
SEQLVNFTGKADMGGPFSYVYFFC [E12D]	2.46
SEQLVNFTGKAIMGGPFSYVYFFC [E12I]	2.98
SEQLVNFTGKAGMGGPFSYVYFFC [E12G]	2.96
SEQLVNFTGKAQMGGPFSYVYFFC [E12Q]	4.32
SEQLVNFTRKAEMGGPFSYVYFFC [G9R]	3.01
SEQLVNFTVKAEMGGPFSYVYFFC [G9V]	3.09
SEQLVNFTPKAEMGGPFSYVYFFC [G9P]	2.28
SEQLVNFTDKAEMGGPFSYVYFFC [G9D]	2.19
SEQLVNFTSKAEMGGPFSYVYFFC [G9S]	2.97
SEQLVNFTIKAEMGGPFSYVYFFC [G9I]	2.8
SEQLVNFTAKAEMGGPFSYVYFFC [G9A]	3.2
SEQLVNFTTKAEMGGPFSYVYFFC [G9T]	3.27
SEQLVNFTYKAEMGGPFSYVYFFC [G9Y]	3.05
SEQLVNFTLKAEMGGPFSYVYFFC [G9L]	2.21
SEQLVNFTHKAEMGGPFSYVYFFC [G9H]	3.07
SEQLVNFTWKAEMGGPFSYVYFFC [G9W]	2.95
SEQLVNFTFKAEMGGPFSYVYFFC [G9F]	2.01
SEQLVNFTKKAEMGGPFSYVYFFC [G9K]	2.89
SEQLVNFTCKAEMGGPFSYVYFFC [G9C]	2.05
SEQLVNFTMKAEMGGPFSYVYFFC [G9M]	2.47

Variant	protein stability index
SEQLVNFTEKAEMGGPFSYVYFFC [G9E]	2.46
SEQLVNFTQKAEMGGPFSYVYFFC [G9Q]	2.71
SEQLVNFTNKAEMGGPFSYVYFFC [G9N]	3.19
SEQLVNFTGKAEFGGPFSYVYFFC [M13F]	2.15
SEQLVNFTGKAEPGGPFSYVYFFC [M13P]	2.52
SEQLVNFTGKAEDGGPFSYVYFFC [M13D]	3.13
SEQLVNFTGKAENGGPFSYVYFFC [M13N]	2.69
SEQLVNFTGKAEIGGPFSYVYFFC [M13I]	3.54
SEQLVNFTGKAEGGGPFSYVYFFC [M13G]	2.77
SEQLVNFTGKAELGGPFSYVYFFC [M13L]	2.2
SEQLVNFTGKAEKGGPFSYVYFFC [M13K]	2.34
SEQLVNFTGKAEYGGPFSYVYFFC [M13Y]	3.13
SEQLVNFTGKAEVGGPFSYVYFFC [M13V]	3.14
SEQLVNFTGKAEAGGPFSYVYFFC [M13A]	2.1
SEQLVNFTGKAESGGPFSYVYFFC [M13S]	2.16
SEQLVNFTGKAETGGPFSYVYFFC [M13T]	2.27
SEQLVNFTGKAEWGGPFSYVYFFC [M13W]	2.15
SEQLVNFTGKAEQGGPFSYVYFFC [M13Q]	2.02
SEQLVNFTGKAEHGGPFSYVYFFC [M13H]	2.64
SEQLVNFTGKAERGGPFSYVYFFC [M13R]	2.54
SEQLVNFTGKAEEGGPFSYVYFFC [M13E]	1.54
SEQLVNFTGKAECGGPFSYVYFFC [M13C]	2.52
SEQLVNFTGQAEMGGPFSYVYFFC [K10Q]	3.07
SEQLVNFTGWAEMGGPFSYVYFFC [K10W]	3.18

Variant	protein stability index
SEQLVNFTGDAEMGGPFSYVYFFC [K10D]	2.33
SEQLVNFTGLAEMGGPFSYVYFFC [K10L]	1.94
SEQLVNFTGTAEMGGPFSYVYFFC [K10T]	3.48
SEQLVNFTGNAEMGGPFSYVYFFC [K10N]	2.25
SEQLVNFTGPAEMGGPFSYVYFFC [K10P]	2.32
SEQLVNFTGYAEMGGPFSYVYFFC [K10Y]	2.5
SEQLVNFTGRAEMGGPFSYVYFFC [K10R]	2.99
SEQLVNFTGVAEMGGPFSYVYFFC [K10V]	3.02
SEQLVNFTGIAEMGGPFSYVYFFC [K10I]	3.15
SEQLVNFTGMAEMGGPFSYVYFFC [K10M]	2.72
SEQLVNFTGAAEMGGPFSYVYFFC [K10A]	2.02
SEQLVNFTGCAEMGGPFSYVYFFC [K10C]	2.55
SEQLVNFTGGAEMGGPFSYVYFFC [K10G]	4.37
SEQLVNFTGFAEMGGPFSYVYFFC [K10F]	2.92
SEQLVNFTGEAEMGGPFSYVYFFC [K10E]	2.94
SEQLVNFTGHAEMGGPFSYVYFFC [K10H]	2.51
SEQLVNFTGSAEMGGPFSYVYFFC [K10S]	3.56
SEQLVNFTGKAEMGRPFSYVYFFC [G15R]	2.79
SEQLVNFTGKAEMGVPFSYVYFFC [G15V]	2.76
SEQLVNFTGKAEMGPPFSYVYFFC [G15P]	4.29
SEQLVNFTGKAEMGAPFSYVYFFC [G15A]	2.8
SEQLVNFTGKAEMGMPFSYVYFFC [G15M]	3.83
SEQLVNFTGKAEMGIPFSYVYFFC [G15I]	3.9
SEQLVNFTGKAEMGSPFSYVYFFC [G15S]	2.85

Variant	protein stability index
SEQLVNFTGKAEMGKPFSYVYFFC [G15K]	2.63
SEQLVNFTGKAEMGNPFSYVYFFC [G15N]	2.23
SEQLVNFTGKAEMGDPFSYVYFFC [G15D]	2.33
SEQLVNFTGKAEMGLPFSYVYFFC [G15L]	2.52
SEQLVNFTGKAEMGYPFSYVYFFC [G15Y]	2.89
SEQLVNFTGKAEMGCPFSYVYFFC [G15C]	2.89
SEQLVNFTGKAEMGHPFSYVYFFC [G15H]	3.96
SEQLVNFTGKAEMGQPFSYVYFFC [G15Q]	2.59
SEQLVNFTGKAEMGWPFSYVYFFC [G15W]	2.36
SEQLVNFTGKAEMGFPFSYVYFFC [G15F]	3.12
SEQLVNFTGKAEMGTPFSYVYFFC [G15T]	2.73
SEQLVNFTGKAEMGEPFSYVYFFC [G15E]	3.6
SEQLVNFTGKLEMGGPFSYVYFFC [A11L]	2.92
SEQLVNFTGKDEMGGPFSYVYFFC [A11D]	2.64
SEQLVNFTGKCEMGGPFSYVYFFC [A11C]	2
SEQLVNFTGKREMGGPFSYVYFFC [A11R]	2.14
SEQLVNFTGKTEMGGPFSYVYFFC [A11T]	3.55
SEQLVNFTGKWEMGGPFSYVYFFC [A11W]	2.75
SEQLVNFTGKEEMGGPFSYVYFFC [A11E]	3.33
SEQLVNFTGKPEMGGPFSYVYFFC [A11P]	4.32
SEQLVNFTGKIEMGGPFSYVYFFC [A11I]	2.16
SEQLVNFTGKFEMGGPFSYVYFFC [A11F]	3.61
SEQLVNFTGKMEMGGPFSYVYFFC [A11M]	2.61
SEQLVNFTGKVEMGGPFSYVYFFC [A11V]	3.08

Variant	protein stability index
SEQLVNFTGKNEMGGPFSYVYFFC [A11N]	2.66
SEQLVNFTGKKEMGGPFSYVYFFC [A11K]	3.7
SEQLVNFTGKHEMGGPFSYVYFFC [A11H]	2.39
SEQLVNFTGKSEMGGPFSYVYFFC [A11S]	2.17
SEQLVNFTGKGEMGGPFSYVYFFC [A11G]	2.41
SEQLVNFTGKQEMGGPFSYVYFFC [A11Q]	3.25
SEQLVNFTGKYEMGGPFSYVYFFC [A11Y]	2.47
SEQLVWFTGKAEMGGPFSYVYFFC [N6W]	2.96
SEQLVRFTGKAEMGGPFSYVYFFC [N6R]	2.31
SEQLVYFTGKAEMGGPFSYVYFFC [N6Y]	2.19
SEQLVSFTGKAEMGGPFSYVYFFC [N6S]	2.52
SEQLVTFTGKAEMGGPFSYVYFFC [N6T]	2.97
SEQLVVFTGKAEMGGPFSYVYFFC [N6V]	2.18
SEQLVNWTGKAEMGGPFSYVYFFC [F7W]	2.51
SEQLVNRTGKAEMGGPFSYVYFFC [F7R]	2.32
SEQLVNPTGKAEMGGPFSYVYFFC [F7P]	3.16
SEQLVNYTGKAEMGGPFSYVYFFC [F7Y]	3.39
SEQLVNTTGKAEMGGPFSYVYFFC [F7T]	3.16
SEQLVNITGKAEMGGPFSYVYFFC [F7I]	2.32
SEQLVNETGKAEMGGPFSYVYFFC [F7E]	4.73
SEQLVNDTGKAEMGGPFSYVYFFC [F7D]	2.32
SEQLVNQTGKAEMGGPFSYVYFFC [F7Q]	1.74
SEQLVNSTGKAEMGGPFSYVYFFC [F7S]	2.03
SEQLVNHTGKAEMGGPFSYVYFFC [F7H]	2.79

Variant	protein stability index
SEQLVNLTGKAEMGGPFSYVYFFC [F7L]	3.36
SEQLVNMTGKAEMGGPFSYVYFFC [F7M]	1.98
SEQLVNCTGKAEMGGPFSYVYFFC [F7C]	3.4
SEQLVNNTGKAEMGGPFSYVYFFC [F7N]	2.37
SEQLVNVTGKAEMGGPFSYVYFFC [F7V]	2.45
SEQLVNKTGKAEMGGPFSYVYFFC [F7K]	2.69
SEQLVNGTGKAEMGGPFSYVYFFC [F7G]	1.68
SEQLVNFTGKAEMGGDFSYVYFFC [P16D]	3.16
SEQLVNFTGKAEMGGGFSYVYFFC [P16G]	2.05
SEQLVNFTGKAEMGGNFSYVYFFC [P16N]	3.26
SEQLVNFTGKAEMGGFFSYVYFFC [P16F]	3.14
SEQLVNFTGKAEMGGAFSYVYFFC [P16A]	2.25
SEQLVNFTGKAEMGGCFSYVYFFC [P16C]	3.95
SEQLVNFTGKAEMGGQFSYVYFFC [P16Q]	2.58
SEQLVNFTGKAEMGGIFSYVYFFC [P16I]	2.04
SEQLVNFTGKAEMGGMFSYVYFFC [P16M]	3.03
SEQLVNFTGKAEMGGHFSYVYFFC [P16H]	2.25
SEQLVNFTGKAEMGGKFSYVYFFC [P16K]	2.98
SEQLVNFTGKAEMGGEFSYVYFFC [P16E]	2.88
SEQLVNFTGKAEMGGLFSYVYFFC [P16L]	3.79
